Measurements reported in the supplement of paper PMC10567573.

B1: POMT2 (parent)
chain: YHEAPMTRKHYQVTGYGINGTGDS
B2: DVL3 (parent)
chain: YNPHPGFPELGYSYGGGSASSQHS

Variants of: B1
Assay: protein stability index of a GFP-peptide fusion (GPS, HEK-293T) (PSI 1-6); higher = more stable
Details: c terminus: a fixed tail appended
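Also: lentivirally expressed fusions sorted by FACS into six bins by GFP to DsRed ratio, PSI derived from sequencing read proportions per bin multiplied by bin number.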

Row | Variant | protein stability index
1 | YHEAPMTRKHYQVTGYGINGTGDA [S24A] | 2.15
2 | YHEAPMTRKHYQVTGYGINGTGLS [D23L] | 1.95
3 | YHEAPMTRKHYQVTGYGINGTGNS [D23N] | 2.17
4 | YHEAPMTRKHYQVTGYGINGTGTS [D23T] | 1.85
5 | YHEAPMTRKHYQVTGYGINGTGHS [D23H] | 2.03
6 | YHEAPMTRKHYQVTGYGINGTGFS [D23F] | 1.63
7 | YHEAPMTRKHYQVTGYGINGTGRS [D23R] | 1.25
8 | YHEAPMTRKHYQVTGYGINGTGKS [D23K] | 1.99
9 | YHEAPMTRKHYQVTGYGINGTGQS [D23Q] | 2.44
10 | YHEAPMTRKHYQVTGYGINGTGMS [D23M] | 1.66
11 | YHEAPMTRKHYQVTGYGINGTGSS [D23S] | 2.14
12 | YHEAPMTRKHYQVTGYGINGTGIS [D23I] | 2.18
13 | YHEAPMTRKHYQVTGYGINGTGCS [D23C] | 2.22
14 | YHEAPMTRKHYQVTGYGINGTGPS [D23P] | 2.02
15 | YHEAPMTRKHYQVTGYGINGTGVS [D23V] | 2.42
16 | YHEAPMTRKHYQVTGYGINGTGES [D23E] | 2.11
17 | YHEAPMTRKHYQVTGYGINGTGYS [D23Y] | 1.67
18 | YHEAPMTRKHYQVTGYGINGTGWS [D23W] | 1.24
19 | YHEAPMTRKHYQVTGYGINGTGGS [D23G] | 2.88
20 | YHEAPMTRKHYQVTGYGINGTGAS [D23A] | 2.02
21 | YHEAPMTRKHYQVTGYGIAGTGDS [N19A] | 1.8
22 | YHEAPMTRKHYQVTGYGIYGTGDS [N19Y] | 2.57
23 | YHEAPMTRKHYQVTGYGIWGTGDS [N19W] | 2.24

Row | Variant | protein stability index
24 | YHEAPMTRKHYQVTGYGISGTGDS [N19S] | 2.3
25 | YHEAPMTRKHYQVTGYGIFGTGDS [N19F] | 2.3
26 | YHEAPMTRKHYQVTGYGIGGTGDS [N19G] | 2.4
27 | YHEAPMTRKHYQVTGYGICGTGDS [N19C] | 2.02
28 | YHEAPMTRKHYQVTGYGIRGTGDS [N19R] | 1.73
29 | YHEAPMTRKHYQVTGYGITGTGDS [N19T] | 2.21
30 | YHEAPMTRKHYQVTGYGIPGTGDS [N19P] | 2.4
31 | YHEAPMTRKHYQVTGYGIIGTGDS [N19I] | 1.9
32 | YHEAPMTRKHYQVTGYGIQGTGDS [N19Q] | 1.84
33 | YHEAPMTRKHYQVTGYGIHGTGDS [N19H] | 2.25
34 | YHEAPMTRKHYQVTGYGIMGTGDS [N19M] | 2.62
35 | YHEAPMTRKHYQVTGYGIDGTGDS [N19D] | 1.88
36 | YHEAPMTRKHYQVTGYGIVGTGDS [N19V] | 2.03
37 | YHEAPMTRKHYQVTGYGILGTGDS [N19L] | 2.06
38 | YHEAPMTRKHYQVTGYGIEGTGDS [N19E] | 1.9
39 | YHEAPMTRKHYQVTGYGIKGTGDS [N19K] | 2.44
40 | YHEAPMTRKHYQVTLYGINGTGDS [G15L] | 1.51
41 | YHEAPMTRKHYQVTVYGINGTGDS [G15V] | 1.44
42 | YHEAPMTRKHYQVTQYGINGTGDS [G15Q] | 1.88
43 | YHEAPMTRKHYQVTYYGINGTGDS [G15Y] | 2.44
44 | YHEAPMTRKHYQVTPYGINGTGDS [G15P] | 2.86
45 | YHEAPMTRKHYQVTKYGINGTGDS [G15K] | 2.71
46 | YHEAPMTRKHYQVTNYGINGTGDS [G15N] | 2.04

Row | Variant | protein stability index
47 | YHEAPMTRKHYQVTMYGINGTGDS [G15M] | 2.03
48 | YHEAPMTRKHYQVTTYGINGTGDS [G15T] | 2.78
49 | YHEAPMTRKHYQVTSYGINGTGDS [G15S] | 2.14
50 | YHEAPMTRKHYQVTWYGINGTGDS [G15W] | 2.28
51 | YHEAPMTRKHYQVTRYGINGTGDS [G15R] | 2.02
52 | YHEAPMTRKHYQVTGYGINGTQDS [G22Q] | 2.28
53 | YHEAPMTRKHYQVTGYGINGTVDS [G22V] | 2.25
54 | YHEAPMTRKHYQVTGYGINGTMDS [G22M] | 2.04
55 | YHEAPMTRKHYQVTGYGINGTNDS [G22N] | 2.18
56 | YHEAPMTRKHYQVTGYGINGTIDS [G22I] | 1.68
57 | YHEAPMTRKHYQVTGYGINGTPDS [G22P] | 3.15
58 | YHEAPMTRKHYQVTGYGINGTCDS [G22C] | 1.91
59 | YHEAPMTRKHYQVTGYGINGTRDS [G22R] | 1.92
60 | YHEAPMTRKHYQVTGYGINGTDDS [G22D] | 2.17
61 | YHEAPMTRKHYQVTGYGINGTKDS [G22K] | 2.29
62 | YHEAPMTRKHYQVTGYGINGTEDS [G22E] | 2.35
63 | YHEAPMTRKHYQVTGYGINGTFDS [G22F] | 2.3
64 | YHEAPMTRKHYQVTGYGINGTLDS [G22L] | 2.28
65 | YHEAPMTRKHYQVTGYGINGTWDS [G22W] | 1.7
66 | YHEAPMTRKHYQVTGYGINGTADS [G22A] | 2.26
67 | YHEAPMTRKHYQVTGYGINGTYDS [G22Y] | 2.15
68 | YHEAPMTRKHYQVTGYGINGTSDS [G22S] | 2.36
69 | YHEAPMTRKHYQVTGYGINGTTDS [G22T] | 1.95

Row | Variant | protein stability index
70 | YHEAPMTRKHYQVTGYGINGTHDS [G22H] | 2.44
71 | YHEAPMTRKHYQVTGYGGNGTGDS [I18G] | 2.2
72 | YHEAPMTRKHYQVTGYGDNGTGDS [I18D] | 2.9
73 | YHEAPMTRKHYQVTGYGPNGTGDS [I18P] | 2.36
74 | YHEAPMTRKHYQVTGYGYNGTGDS [I18Y] | 2.07
75 | YHEAPMTRKHYQVTGYGKNGTGDS [I18K] | 2.78
76 | YHEAPMTRKHYQVTGYGCNGTGDS [I18C] | 2.37
77 | YHEAPMTRKHYQVTGYGQNGTGDS [I18Q] | 2.9
78 | YHEAPMTRKHYQVTGYGFNGTGDS [I18F] | 2.47
79 | YHEAPMTRKHYQVTGYGNNGTGDS [I18N] | 2.42
80 | YHEAPMTRKHYQVTGYGSNGTGDS [I18S] | 2.22
81 | YHEAPMTRKHYQVTGYGANGTGDS [I18A] | 2.73
82 | YHEAPMTRKHYQVTGYGLNGTGDS [I18L] | 2.64
83 | YHEAPMTRKHYQVTGYGENGTGDS [I18E] | 2.95
84 | YHEAPMTRKHYQVTGYGWNGTGDS [I18W] | 1.67
85 | YHEAPMTRKHYQVTGYGMNGTGDS [I18M] | 2.3
86 | YHEAPMTRKHYQVTGYGVNGTGDS [I18V] | 2.21
87 | YHEAPMTRKHYQVTGYGHNGTGDS [I18H] | 2.47
88 | YHEAPMTRKHYQVTGYGRNGTGDS [I18R] | 2.55
89 | YHEAPMTRKHYQVTGYGTNGTGDS [I18T] | 2.42

Variants of: B2
Assay: as above
Details: c terminus: a fixed tail appended

Row | Variant | protein stability index
90 | YNPHPGFEELGYSYGGGSASSQHS [P8E] | 3.16
91 | YNPHPGFPEYGYSYGGGSASSQHS [L10Y] | 2.57
92 | YNPHPGFPELGYSYGGGSHSSQHS [A19H] | 2.3
93 | YNPHPGFPELGHSYGGGSASSQHS [Y12H] | 3.26
94 | YNEHPGFPELGYSYGGGSASSQHS [P3E] | 2.75
